The text below walks through data of the domain aggregation screens of Martell et al. (2025).

The data set can be described thus: soluble fraction after stress (log2 fold change); higher = more stays soluble; pooled small domains, quantitative proteomics. To be noted: stress: pH 4. The essentials: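 Pooled custom libraries of small protein domains were subjected to pH 4 and measured by high-throughput quantitative proteomics. The log2 fold change in soluble amount per domain is reported, higher values meaning more remained soluble. This is used as a measure of aggregation propensity.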
“HMRPLISQTLRIDRGEGDIAGPLGVLAKEYPHLSMGSYPFQKDGIYGAHVVIRGSDPGMVEAAMDKLKAAF”: the “soluble fraction (log2)” value is -0.0188. The value for “HMRPLTPLEKLTPDADGKYYHIVQSGETLSWIAKLYETTAEKLQAWNNLFSSDIFPNQKLLLQVTPP” was -0.123. Take “HMRPPLEWGTHGEITTRTVASGYVRASARVRLWDGELQRMTATASTASDARASLQHRIAERLRFSEL”: the “soluble fraction (log2)” value was -0.0592.

As to “HMRPPLRAAIIDHLARDWHTVAELARLLPASGAHVSRLVVELRAVGAVDERISHPDWPGNRPTEYRLRRA”, the “soluble fraction (log2)” value was -1.05. The value for “HMRPTHYSGPSVIAMINNRVWFSDGSRLAPGEHHDDLEVVGLSPPWSAKVRWQGVEFDVGLFE” was -0.946; that for “HMRQGHLDLLRQIHALPPSTREVVYLRAFGGLSFREIGDVLGRTETWARVTFYRGKEALRKG” was -0.275. Next, “HMRQHHMIISTKLGTPKEELAKLVSGFEDQGLRVSVITGTDYTVIGLVGDTTHLDEKRIRANPYVDNVQRV”: 0.0502; “HMRQIMIIVLKSTATKEDSLLFKNKLEQEYGVKVNEWTGVESTVLGLIGDTTKIDIDYISAQDIVESVKRV”: -0.494. Regarding “HMRQKTTFFATESFELPNGEKVEEGQIFRLNDGAFNIAEQQGITRFLTSEANYGRMIAANAEVEKAKLDA”, the “soluble fraction (log2)” value is -1.05.

As for “HMRQLISIYNNTIGADEIDQMRNILSNSGYKEGVDFAVQTADKKSVILVRRDLAGMIQEQLSGEGLPS”, the “soluble fraction (log2)” value is -0.18. The value for “HMRQNPESFLNHKVKKNESLESLTKKYELTENEIIFYNPLIQKIGLKKRMILKIPIYNNQNLVTKSVD” was -0.161; that for “HMRQPRGQRVTVREASSLLPFLFAHLTDRSRSAVKSLLRHGQIWVNGRVTTHFDMPLRPGDTVLISHERG” was -0.233; that for “HMRQSQEVSGGERYRRLTAYLDTHPFITRKEYSGITGLLKNKALNDLNLLVNKGYLEAMGRGSHKVYVRPM” was 0.321. Next, “HMRQSSLRTRELLIDAARQLFARFGVEKTTMNDIAEASKRGRRTVYMYFNSKSDVFYAVVGRE”: -0.116. Consider “HMRQVFPNPSSSQIKLASSRIGQAFSILDQQGRVVLSGKVSEEAVIALENLAKGIYVLKIGSWSETILK”, for which the “soluble fraction (log2)” value amounted to 0.00122.

As to “HMRRATLERLANNTAEKAIRYKRSLALEPMNPQERRIIHAALQEVEGVSTHSVGTEPNRKVIVVPDGV”, the “soluble fraction (log2)” value was -0.186. In the case of “HMRRFEFSDGSSNKFWQITRDGTSLTVTFGKIGTAGQTQLKELATEAAAIAEHDKLVKEKTKKGYAEVG”, the “soluble fraction (log2)” value was -0.157. Next, “HMRRGFGYVRKLPSGRWQASFVGPDLARHSAPHTFETKGDAEGWLGRRQADVVAGEWRPPVP”: 0.321; “HMRRISLEDWQLIESLIRRDWSPEQISLWLKKYKKIRVSHEWIYQYILKDKSKAGDLHTHLRSR”: -0.419.

For “HMRRKNQVQSSYQKRENGTYTVRFFLSDDMGSIMDLQLMATREDMARALRERFLKDPEKIYGQIMQMLLR”, the “soluble fraction (log2)” value worked out at 0.241.

Take “HMRRLGTTEIAGILRREISQGILIAKERLPSERSLADTYGVARGTVRQALNLLAREGLVQIRRSSGAYVTF”: the “soluble fraction (log2)” value is -0.299. For “HMRRMAYLVGQRGLAMGDFISGTGQVRIGDTVWRAEAVEGELVRTGDTVVVEGAKMTTAIVRRVM”, the “soluble fraction (log2)” value is -0.302.

Consider “HMRRRKPLVSYEYGTRVYAPSEGEPRYRVVATDADGQRVFAKFSSEEAARHRAREIEGRLATS”, for which the “soluble fraction (log2)” value stood at 0.0937.

With “HMRRSSQQLTLTEVSTIKEMVTSEEYRHVPTGTLALLAQRLRKVFASSSTWYRLVRIYKWRRPRGRIH”, the “soluble fraction (log2)” value was determined as 0.296. The value for “HMRRSVYQANVLDAIKHLVDQNELATTKAIAEYIGDDYQGNVSRAIRELLADRKIKKLPKVGVLQPYEA” was 0.127. Next, “HMRRVEDVRTALEHFAAARNTTPMAMTLDQRREAMRELAASGLLNLRRALSEVAQTLGVARSTVYTYLP”: at least 0.43; “HMRSAKEYKAIREEIYRFIGAYITKHVYAPSNKEIAEAVGISGTTVHRHLIDMIDEGILETD”: -1.29.

With “HMRSFGTLRRLPSGRYQASYAGPDLRRHAAPTTFETKLDAEGWLRDEHRMIERDEWTAPAARSQLK”, the “soluble fraction (log2)” value worked out at 0.0606.

For “HMRSFRIGGLVEQGSIARDGQSLTVRFAVTDLAHKIPVTYTGLLPDLFKEGKGVVAEGKLGPDGVFHASQV”, the “soluble fraction (log2)” value was -0.705.

For the sequence “HMRSPIWKSITATLTAEIAGGQYRAGDKLPTEAELSQRFGVNRHTLRRALAEMAGAGLVVARRGAGVFVQG”, the “soluble fraction (log2)” value is -0.289.

With “HMRSPLYVQIKQHILGDIRKGVWKPGEKLPTELDLAERFGVSVGTVRRAMGGLEDEGIISRREGSGTFVRT”, the “soluble fraction (log2)” value is 0.229.

Regarding “HMRSSAATMFGRIALKNKLVDEATLKKVMSELPAGADLGAVLVKQGLISEQHAEAIQKKITAHMKSAP”, the “soluble fraction (log2)” value came to 0.0511. As to “HMRSSALDEIPGIGKQRKKNLLVHFTSVAKIKEASLDEIAAVPGMNRKAALVVVEFFQNQERE”, the “soluble fraction (log2)” value came out at 0.158.

“HMRSSNEAVSQRRDKILDYISATGRTSTEIVAKEFGVSVMTARRDLLYLMEKRLISKSSSGLFKVDNN”: the “soluble fraction (log2)” value turned out to be 0.408. Take “HMRTIGDSVYEKIKYDIVHLTLKPGEKLSEASLAEKYGISKAPIRVALRKLQEEGLIVIRPQSGSIVSP”: the “soluble fraction (log2)” value was determined as 0.0262. The value for “HMRTMRHLSVPRQETQQILSQLKAEFALPQGARVQPDPSDSKRTLIPVKEGAESELLSRYPVVHAEP” was 0.11; that for “HMRTNNEITSYKLKSGKKRWKFQTYLGLDDKGQKVSVTRQGFRTYNEAISEYNKLRAQGTQGYQ” was at least 0.43.

As for “HMRTPTGVQAYLSSGLIKGIGEKTAAAIVDKFGTDALSVIETDPERLLEIPGITPNKLREILESYNQH”, the “soluble fraction (log2)” value was found to be 0.174. Next, “HMRTVAERYGLTAGQWRVLELLTQGKTNRQIAEMLDVTEGTVKIHVSAIFKAMKVTNRTQALLLAKKH”: -0.522. The value for “HMRTYDPQAVELNNKALELINQGRLDSALLVYDQSIKTDKTYYFPHIGKSIIYMRKKDWNKAFEETQQAIK” was 0.0261. Turning to “HMRVDLATEVHSVLRRMMSRPPTLQEIRADLDGEEPGRVHEALDALRAAFRGGRGPKNPYESLKRSLRRG”, the “soluble fraction (log2)” value is -0.126. Next, “HMRVDLVQRLARHGLSPRQSAVAGGVLRGLDNGEISRQLYIAEQTVKDHLHEIYHRLGVHTRTELLIKVLG”: -0.359. For “HMRVGISRNSGAAGIAVWLTQKLGRPVAKTEEIVHILKNWVDDQYEAGRVTNIGDGELWSVYKQMEAEE”, the “soluble fraction (log2)” value worked out at 0.0584.

On to “HMRVTEIDYGAFMKMIEEKNIGEVKVEDYEIVFTDKDNKNIYKTGIMDDPDLTQRLYNSGAVFA”, for which the “soluble fraction (log2)” value was -1.22. For the sequence “HMRWGDPLTVKVPSFIGQTKDDIAKQHYPFRIEWHGEGAKIGSQLPEVDSVIKQDGTIHLYLV”, the “soluble fraction (log2)” value is -0.0995. In the case of “HMRYFDDEELNNKFLEFLSMRKKIRKPVRTDRALKALLKKLHELSGGDVGLMKQIIDQSLDKEWLGLFEL”, the “soluble fraction (log2)” value is -0.6. Next, “HMRYNPETTAGRRGLIIKMLDEYGQVNVNELSRYFNVSEVTVRNDLAYLERKNLLIRARGGAIKTE”: 0.0289. The value for “HMRYWVKSETDFLIENRGKYSYQEFADMLGRSYAVVYDKMHQLKIDYTKEELEIFDEKHKAQMREKQQR” was -0.665; that for “HMSAAPVGPWALSEFLDAVEKDSVERVTFDDAGKALVAVDADGGRHRVEILPSEGPEILAALRKHSVQFA” was -0.346. Turning to “HMSADEVSQQLTSEQTKSKSYQALLQAYAAYQQKSFDDAALELQNVQQDVLSDSQKTIYNTISQAVNS”, the “soluble fraction (log2)” value is -0.0227. Take “HMSADISIGYNIPKGSVTVSAGGRTLQEGIDYDINYDLGTIKITNQAILNAGLPVQVNFENNAS”: the “soluble fraction (log2)” value was -0.212. For “HMSADLVYLRKRLQDAIAQLPENMRTAYTLFQIANRSIREISELTGASESLVKVRIHRAKGKLQKQLEDLK”, the “soluble fraction (log2)” value was -0.5. Next, “HMSAEDYLERIHELIESKGTAHVADIAQSLGVGKPSVTSMVQKLADEGYLNYEKYRSLTLTDSGRSIA”: 0.0599; “HMSAEDYMEMIYRLSQENGFTRVNDLASALNVQPPSVTRMIQKLAELNLIKYEKYGVIMLQPYGIEVGRSL”: -1.47; “HMSAEGPALADWVVRDAHSIGAKITNSVAQLLIDRVGHNQQLLHNELQKLALVQTDISAELVKTMSHY”: -0.0595. Next, “HMSAETRSWTDAQGNQTQAVLRGFDGGDVLLQNAAGKTLRVPVKNLSEDDQRYVVLNISTLID”: -0.594; “HMSAITLDQARAIALDHAGISEGDATFVKEQTGTSSYEIEFYSGSNEYDYEIDKATGAILNVDR”: 0.22. Next, “HMSALAEELIKKNQAMILTIKPRDTIWGIANRFQSPPSEKFINQIIELNQVDPYRLRIGQDLLIPLN”: 0.00792; “HMSALTDQQQRVLELVASGLVYKEVAAALSISEPTVKYHMGNILTRLHVKNRAQAIAAARQQGLL”: -0.26. Regarding “HMSAMKYTSEVFQRLSRGQFISSNSIDAETRAIYSDIEENQQEYEDYFSKIDFLLSSGDGFYYFSRK”, the “soluble fraction (log2)” value is -1.22.

Take “HMSAMSPTEVGERLRLAREAVRMTQKQAADAISVARTTLVAIEQGQRRVRIDELQQLAKTYGVSVNAILR”: the “soluble fraction (log2)” value worked out at 0.27. Next, “HMSAPAKKPKIKVDLSKVHAGTIVRHKGYGLGQVKGIDGAIIVVTFDGVDKKFQFPGGFENGFLFLTED”: -1.21; “HMSAPLKELGNDPESGKPIVVKDGRFGAYVTDGETNATLRKTDAVESLTPERAAELLAEKRAKG”: 0.199; “HMSAPTAFSERELELLAGMRRGASNKAMAEQLFISVNTVKYHRANLMRKLGARDRNEALEVAARLG”: -0.179. The value for “HMSAQDLIVKTDATQVEARVLEISPEQIRYKRFSNPDGPTYVLPVDAVDYIRYANGETDSFR” was -0.446; that for “HMSASAIYVRPKDVKEPEEVADYLSGVLELDREKLYKKITDKSQWIALIERKVDNDIAFDIRNKKFKGIEI” was -0.784. Next, “HMSASIAEGTVIMLENTTNIRSGMSEDSSKVGTAYAGEKVTVVMSYAEGWTKVKWNGETGYIKTALLQL”: -0.405.

With “HMSASNSIDFANRMIYNKNQVAVFNFGKHMGRPVLEVLKSDPSYYDWMMKGDFPMDTKRKLTEIKLQGF”, the “soluble fraction (log2)” value is -0.173. Next, “HMSATPQRMTIIDALDSSGKNLSAYELLDLLNDKGQLFNISTIYRVLDFWIEMGIVHKINSSNTYL”: 0.132.
